By stoichiometry N is commonly meant a count of units in the complex or per binding partner.

Assay [1] has as its target 5-enolpyruvylshikimate-3-phosphate synthase (EPSPS) from Agrobacterium sp. strain CP4 (CP4-EPSPS) (Agrobacterium sp. strain CP4) (UniProt Q9R4E4). The experiment in a line: native gel or EMSA; native-PAGE of the purified CP4-EPSPS protein (10 μg). On the technique in general: A gel shift assay detects complexes by their altered migration in electrophoresis.
For assay [2] the target is unchanged. The experiment in a line: SEC; Enrich SEC 650 column on FPLC, PBS pH 7.2, 25 °C, 0.5 mL/min, calibrated with Gel Filtration Standard; after Ni-NTA affinity chromatography. (In gel filtration, larger molecules generally elute earlier.)

As for “5-enolpyruvylshikimate-3-phosphate synthase (EPSPS) from Agrobacterium sp. strain CP4 (CP4-EPSPS) (from UniProt Q9R4E4 1-455) (enzyme)”, the stoichiometry N in assay [1] and in assay [2] was 2 in each case.

Source of the values: article PMC10254243.
